B1: Polyunsaturated fatty acid 5-lipoxygenase (Homo sapiens), P09917 (parent)
chain: MPSYTVTVATGSQWFAGTDDYIYLSLVGSAGCSEKHLLDKPFYNDFERGAVDSYDVTVDEELGEIQLVRIEKRKYWLNDDWYLKYITLKTPHGDYIEFPCYRWITGDVEVVLRDGRAKLARDDQIHILKQHRRKELETRQKQYRWMEWNPGFPLSIDAKCHKDLPRDIQFDSEKGVDFVLNYSKAMENLFINRFMHMFQSSWNDFADFEKIFVKISNTISERVMNHWQEDLMFGYQFLNGCNPVLIRRCTELPEKLPVTTEMVECSLERQLSLEQEVQQGNIFIVDFELLDGIDANKTDPCTLQFLAAPICLLYKNLANKIVPIAIQLNQIPGDENPIFLPSDAKYDWLLAKIWVRSSDFHVHQTITHLLRTHLVSEVFGIAMYRQLPAVHPIFKLLVAHVRFTIAINTKAREQLICECGLFDKANATGGGGHVQMVQRAMKDLTYASLCFPEAIKARGMESKEDIPYYFYRDDGLLVWEAIRTFTAEVVDIYYEGDQVVEEDPELQDFVNDVYVYGMRGRKSSGFPKSVKSREQLSEYLTVVIFTASAQHAAVNFGQYDWCSWIPNAPPTMRAPPPTAKGVVTIEQIVDTLPDRGRSCWHLGAVWALSQFQENELFLGMYPEEHFIEKPVKEAMARFRKNLEAIVSVIAERNKKKQLPYYYLSPDRIPNSVAI
B2: MIF4G domain-containing protein (Homo sapiens), A9UHW6 (parent)
chain: MGEPSREEYKIQSFDAETQQLLKTALKDPGAVDLEKVANVIVDHSLQDCVFSKEAGRMCYAIIQAESKQAGQSVFRRGLLNRLQQEYQAREQLRARSLQGWVCYVTFICNIFDYLRVNNMPMMALVNPVYDCLFRLAQPDSLSKEEEVDCLVLQLHRVGEQLEKMNGQRMDELFVLIRDGFLLPTGLSSLAQLLLLEIIEFRAAGWKTTPAAHKYYYSEVSD
B3: Isoform 1 of Cyclin-dependent kinase 2-interacting protein (Homo sapiens), Q9BW66-1 (parent)
chain: MEAKTLGTVTPRKPVLSVSARKIKDNAADWHNLILKWETLNDAGFTTANNIANLKISLLNKDKIELDSSSPASKENEEKVCLEYNEELEKLCEELQATLDGLTKIQVKMEKLSSTTKGICELENYHYGEESKRPPLFHTWPTTHFYEVSHKLLEMYRKELLLKRTVAKELAHTGDPDLTLSYLSMWLHQPYVESDSRLHLESMLLETGHRAL
partner: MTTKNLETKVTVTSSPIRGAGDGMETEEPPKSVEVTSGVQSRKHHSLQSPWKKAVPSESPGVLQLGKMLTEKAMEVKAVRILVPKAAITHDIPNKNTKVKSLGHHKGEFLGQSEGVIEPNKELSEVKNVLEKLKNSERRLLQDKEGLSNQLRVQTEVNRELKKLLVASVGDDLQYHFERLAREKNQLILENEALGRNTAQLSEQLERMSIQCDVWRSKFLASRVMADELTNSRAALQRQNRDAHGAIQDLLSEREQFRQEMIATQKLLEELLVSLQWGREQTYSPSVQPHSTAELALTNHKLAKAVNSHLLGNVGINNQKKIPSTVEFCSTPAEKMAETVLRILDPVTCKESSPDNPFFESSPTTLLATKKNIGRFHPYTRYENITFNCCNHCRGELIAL
B4: Isoform 1 of Equilibrative nucleoside transporter 1 (Homo sapiens), Q99808-1 (parent)
chain: MTTSHQPQDRYKAVWLIFFMLGLGTLLPWNFFMTATQYFTNRLDMSQNVSLVTAELSKDAQASAAPAAPLPERNSLSAIFNNVMTLCAMLPLLLFTYLNSFLHQRIPQSVRILGSLVAILLVFLITAILVKVQLDALPFFVITMIKIVLINSFGAILQGSLFGLAGLLPASYTAPIMSGQGLAGFFASVAMICAIASGSELSESAFGYFITACAVIILTIICYLGLPRLEFYRYYQQLKLEGPGEQETKLDLISKGEEPRAGKEESGVSVSNSQPTNESHSIKAILKNISVLAFSVCFIFTITIGMFPAVTVEVKSSIAGSSTWERYFIPVSCFLTFNIFDWLGRSLTAVFMWPGKDSRWLPSLVLARLVFVPLLLLCNIKPRRYLTVVFEHDAWFIFFMAAFAFSNGYLASLCMCFGPKKVKPAEAETAGAIMAFFLCLGLALGAVFSFLFRAIV
partner: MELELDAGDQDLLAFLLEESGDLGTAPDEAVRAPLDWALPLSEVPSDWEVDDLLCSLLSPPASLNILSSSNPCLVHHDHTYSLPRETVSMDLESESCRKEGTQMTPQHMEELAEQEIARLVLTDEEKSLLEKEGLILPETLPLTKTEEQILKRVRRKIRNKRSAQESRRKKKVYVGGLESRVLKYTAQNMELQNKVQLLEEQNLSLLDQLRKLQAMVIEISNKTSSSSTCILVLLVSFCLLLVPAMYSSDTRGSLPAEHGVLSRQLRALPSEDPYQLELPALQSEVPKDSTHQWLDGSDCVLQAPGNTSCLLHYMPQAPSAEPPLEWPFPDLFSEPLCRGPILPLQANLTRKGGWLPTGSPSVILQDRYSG
B5: MYG1 exonuclease (Homo sapiens), Q9HB07 (parent)
chain: MGHRFLRGLLTLLLPPPPLYTRHRMLGPESVPPPKRSRSKLMAPPRIGTHNGTFHCDEALACALLRLLPEYRDAEIVRTRDPEKLASCDIVVDVGGEYDPRRHRYDHHQRSFTETMSSLSPGKPWQTKLSSAGLIYLHFGHKLLAQLLGTSEEDSMVGTLYDKMYENFVEEVDAVDNGISQWAEGEPRYALTTTLSARVARLNPTWNHPDQDTEAGFKRAMDLVQEEFLQRLDFYQHSWLPARALVEEALAQRFQVDPSGEIVELAKGACPWKEHLYHLESGLSPPVAIFFVIYTDQAGQWRIQCVPKEPHSFQSRLPLPEPWRGLRDEALDQVSGIPGCIFVHASGFIGGHRTREGALSMARATLAQRSYLPQIS
partner: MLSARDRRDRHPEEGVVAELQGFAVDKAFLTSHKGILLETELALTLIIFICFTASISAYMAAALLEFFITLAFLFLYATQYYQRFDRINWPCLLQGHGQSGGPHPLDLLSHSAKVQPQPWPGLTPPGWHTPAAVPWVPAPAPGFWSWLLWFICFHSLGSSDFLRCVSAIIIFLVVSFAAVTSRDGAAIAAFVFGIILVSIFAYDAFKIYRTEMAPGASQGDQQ
B6: Dolichyl-diphosphooligosaccharide--protein glycosyltransferase subunit 1 (Homo sapiens), P04843 (parent)
chain: MEAPAAGLFLLLLLGTWAPAPGSASSEAPPLINEDVKRTVDLSSHLAKVTAEVVLAHLGGGSTSRATSFLLALEPELEARLAHLGVQVKGEDEEENNLEVRETKIKGKSGRFFTVKLPVALDPGAKISVIVETVYTHVLHPYPTQITQSEKQFVVFEGNHYFYSPYPTKTQTMRVKLASRNVESYTKLGNPTRSEDLLDYGPFRDVPAYSQDTFKVHYENNSPFLTITSMTRVIEVSHWGNIAVEENVDLKHTGAVLKGPFSRYDYQRQPDSGISSIRSFKTILPAAAQDVYYRDEIGNVSTSHLLILDDSVEMEIRPRFPLFGGWKTHYIVGYNLPSYEYLYNLGDQYALKMRFVDHVFDEQVIDSLTVKIILPEGAKNIEIDSPYEISRAPDELHYTYLDTFGRPVIVAYKKNLVEQHIQDIVVHYTFNKVLMLQEPLLVVAAFYILFFTVIIYVRLDFSITKDPAAEARMKVACITEQVLTLVNKRIGLYRHFDETVNRYKQSRDISTLNSGKKSLETEHKALTSEIALLQSRLKTEGSDLCDRVSEMQKLDAQVKELVLKSAVEAERLVAGKLKKDTYIENEKLISGKRQELVTKIDHILDAL

Variants of: B1
Conditions: with cep63_human CEP63, Q96MT8
Chain of cep63_human CEP63, Q96MT8 (Q96MT8 whole entry): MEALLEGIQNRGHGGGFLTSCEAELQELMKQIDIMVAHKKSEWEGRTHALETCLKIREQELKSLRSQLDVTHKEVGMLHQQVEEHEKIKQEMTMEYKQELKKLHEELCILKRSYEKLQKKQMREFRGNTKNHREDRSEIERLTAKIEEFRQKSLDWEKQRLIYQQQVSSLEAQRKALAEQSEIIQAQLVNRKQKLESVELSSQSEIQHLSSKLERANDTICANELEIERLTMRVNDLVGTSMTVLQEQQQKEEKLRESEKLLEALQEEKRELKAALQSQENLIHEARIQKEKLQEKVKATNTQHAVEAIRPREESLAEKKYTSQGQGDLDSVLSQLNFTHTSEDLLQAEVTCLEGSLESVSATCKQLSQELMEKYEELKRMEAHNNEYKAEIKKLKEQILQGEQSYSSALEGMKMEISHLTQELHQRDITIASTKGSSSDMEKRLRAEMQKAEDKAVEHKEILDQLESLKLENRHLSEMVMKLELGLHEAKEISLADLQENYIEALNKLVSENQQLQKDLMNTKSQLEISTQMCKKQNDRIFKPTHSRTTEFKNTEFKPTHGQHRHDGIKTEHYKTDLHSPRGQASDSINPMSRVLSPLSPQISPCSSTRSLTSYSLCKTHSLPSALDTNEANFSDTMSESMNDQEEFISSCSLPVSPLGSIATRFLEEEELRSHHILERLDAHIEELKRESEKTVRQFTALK

Variant | effect of a mutation on the interaction
E254K | with no effect

Variants of: B1
Conditions: with nutm1_human NUTM1, Q86Y26
Chain of nutm1_human NUTM1, Q86Y26 (Q86Y26 whole entry): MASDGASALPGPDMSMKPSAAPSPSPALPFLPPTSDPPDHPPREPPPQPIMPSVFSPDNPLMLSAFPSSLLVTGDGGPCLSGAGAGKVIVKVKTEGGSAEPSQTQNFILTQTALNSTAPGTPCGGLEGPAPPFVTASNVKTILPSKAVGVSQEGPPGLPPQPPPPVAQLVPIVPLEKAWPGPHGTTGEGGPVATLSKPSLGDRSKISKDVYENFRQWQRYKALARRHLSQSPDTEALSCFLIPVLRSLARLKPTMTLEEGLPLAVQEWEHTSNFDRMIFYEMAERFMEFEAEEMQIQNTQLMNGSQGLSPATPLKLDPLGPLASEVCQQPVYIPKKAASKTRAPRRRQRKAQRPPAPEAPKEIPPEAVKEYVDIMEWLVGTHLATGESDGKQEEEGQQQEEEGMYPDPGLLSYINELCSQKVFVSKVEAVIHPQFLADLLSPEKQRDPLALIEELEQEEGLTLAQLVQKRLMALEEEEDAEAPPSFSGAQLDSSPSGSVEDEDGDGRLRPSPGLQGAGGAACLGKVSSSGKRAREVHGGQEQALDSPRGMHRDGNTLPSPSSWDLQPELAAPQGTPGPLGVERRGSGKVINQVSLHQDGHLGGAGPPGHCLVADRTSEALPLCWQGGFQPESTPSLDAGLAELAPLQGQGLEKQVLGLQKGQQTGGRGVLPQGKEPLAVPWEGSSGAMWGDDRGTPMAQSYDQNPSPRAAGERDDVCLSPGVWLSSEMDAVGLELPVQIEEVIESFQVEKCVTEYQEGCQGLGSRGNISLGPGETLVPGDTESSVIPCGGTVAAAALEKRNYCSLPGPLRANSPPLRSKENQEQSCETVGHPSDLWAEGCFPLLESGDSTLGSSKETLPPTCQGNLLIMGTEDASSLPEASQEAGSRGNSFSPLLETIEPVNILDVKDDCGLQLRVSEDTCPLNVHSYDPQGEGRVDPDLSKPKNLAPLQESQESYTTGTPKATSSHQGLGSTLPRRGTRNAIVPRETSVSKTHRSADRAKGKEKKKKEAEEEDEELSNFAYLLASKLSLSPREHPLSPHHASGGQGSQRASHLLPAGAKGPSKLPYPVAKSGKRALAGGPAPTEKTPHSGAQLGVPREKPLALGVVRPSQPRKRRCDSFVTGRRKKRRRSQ

Variant | effect of a mutation on the interaction
E254K | with no effect

Variants of: B2
Conditions: with hgs_human HGS

Variant | effect of a mutation on the interaction
E160K | with no effect

Variants of: B3
Conditions: with go45_human BLZF1, Q9H2G9

Variant | effect of a mutation on the interaction
D177N | with no effect

Variants of: B3
Conditions: with go45_human BLZF1, Q9H2G9
Remark: another data set of the same source

Variant | effect of a mutation on the interaction
R164H | with no effect

Variants of: B4
Conditions: with creb3_human CREB3, O43889

Variant | effect of a mutation on the interaction
A293T | with no effect

Variants of: B5
Conditions: with cklf5_human CMTM5, Q96DZ9

Variant | effect of a mutation on the interaction
R243Q | with no effect
R188Q | with no effect

Variants of: B6
Conditions: with ubql1_human UBQLN1, Q9UMX0
Chain of ubql1_human UBQLN1, Q9UMX0 (Q9UMX0 whole entry): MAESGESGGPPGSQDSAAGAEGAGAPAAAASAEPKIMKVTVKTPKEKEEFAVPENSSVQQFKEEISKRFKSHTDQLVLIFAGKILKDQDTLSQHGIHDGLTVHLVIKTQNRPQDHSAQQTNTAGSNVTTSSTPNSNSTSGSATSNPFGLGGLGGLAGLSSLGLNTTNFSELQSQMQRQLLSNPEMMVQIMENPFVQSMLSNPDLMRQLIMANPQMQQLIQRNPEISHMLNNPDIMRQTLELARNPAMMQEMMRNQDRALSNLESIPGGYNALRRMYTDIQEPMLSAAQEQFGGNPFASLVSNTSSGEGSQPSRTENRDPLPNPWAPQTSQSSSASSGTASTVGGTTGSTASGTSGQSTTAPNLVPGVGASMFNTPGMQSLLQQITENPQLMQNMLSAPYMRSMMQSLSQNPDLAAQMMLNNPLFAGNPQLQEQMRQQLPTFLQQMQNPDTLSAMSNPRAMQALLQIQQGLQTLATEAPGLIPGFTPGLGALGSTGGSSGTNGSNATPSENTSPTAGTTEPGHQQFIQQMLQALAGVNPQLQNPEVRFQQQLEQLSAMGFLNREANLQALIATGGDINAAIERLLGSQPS

Variant | effect of a mutation on the interaction
F203L | disrupting interaction strength

Variants of: B6
Conditions: with sgta_human SGTA

Variant | effect of a mutation on the interaction
F203L | with no effect
